Test system: Ac transposase (Zea mays)
Assay: cell_activity
Details: Ds excision from test plasmid in wheat immature embryos; 0 without transposase plasmid

Ds-Ubi-bar element (254 bp Ds 5' and 320 bp Ds 3' ends)
activity (blue spots per embryo): 61
